What was measured:
[1] = biological target: 2D6 ubiquitin-CCL7 fusion
[2] = biological target: 3D3 ubiquitin-CCL7 fusion (ubiquitin I3L, V17L, I23V)

B1: Usp2-cc (catalytic core of the mouse deubiquitylating enzyme Usp2) (protein)
chain: SKSAQGLAGLRNLGNTCFMNSILQCLSNTRELRDYCLQRLYMRDLGHTSSAHTALMEEFAKLIQTIWTSSPNDVVSPSEFKTQIQRYAPRFMGYNQQDAQEFLRFLLDGLHNEVNRVAARPKASPETLDHLPDEEKGRQMWRKYLEREDSRIGDLFVGQLKSSLTCTDCGYCSTVFDPFWDLSLPIAKRGYPEVTLMDCMRLFTKEDILDGDEKPTCCRCRARKRCIKKFSVQRFPKILVLHLKRFSESRIRTSKLTTFVNFPLRDLDLREFASENTNHAVYNLYAVSNHSGTTMGGHYTAYCRSPVTGEWHTFNDSSVTPMSSSQVRTSDAYLLFYELASPPSRM
Usp2-cc cleavage time course (SDS-PAGE) [1]: the 2D6 fusion (2D6-CCL7) was only partially cleavable, with large amounts of fusion remaining uncleaved after 12 hr | Usp2-cc cleavage time course (SDS-PAGE) [2]: 3D3 ubiquitin (3D3-CCL7) was recognized and cleaved with efficiency similar to that observed for wildtype ubiquitin (WT-CCL7)
